Source: PMC548358

T1: Trx-mMUTYH wild type (Mus musculus, UniProt Q99P21 1-515)
T1 sequence: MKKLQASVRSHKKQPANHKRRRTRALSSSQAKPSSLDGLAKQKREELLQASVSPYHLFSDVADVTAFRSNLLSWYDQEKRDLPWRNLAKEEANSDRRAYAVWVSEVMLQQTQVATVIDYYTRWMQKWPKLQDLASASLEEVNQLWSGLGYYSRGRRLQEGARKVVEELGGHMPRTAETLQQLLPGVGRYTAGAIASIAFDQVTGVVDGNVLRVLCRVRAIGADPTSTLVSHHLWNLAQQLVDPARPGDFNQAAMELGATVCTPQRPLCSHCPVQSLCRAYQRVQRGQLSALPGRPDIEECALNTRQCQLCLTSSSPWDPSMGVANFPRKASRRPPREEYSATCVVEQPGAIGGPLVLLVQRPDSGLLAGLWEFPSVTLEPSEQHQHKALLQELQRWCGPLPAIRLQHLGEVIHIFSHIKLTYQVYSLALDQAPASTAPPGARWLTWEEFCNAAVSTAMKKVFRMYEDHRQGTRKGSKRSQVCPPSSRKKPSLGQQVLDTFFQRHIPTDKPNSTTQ

T2: Trx-mMUTYH(D207N) (Mus musculus, UniProt Q99P21 1-515, D207N)
T2 sequence: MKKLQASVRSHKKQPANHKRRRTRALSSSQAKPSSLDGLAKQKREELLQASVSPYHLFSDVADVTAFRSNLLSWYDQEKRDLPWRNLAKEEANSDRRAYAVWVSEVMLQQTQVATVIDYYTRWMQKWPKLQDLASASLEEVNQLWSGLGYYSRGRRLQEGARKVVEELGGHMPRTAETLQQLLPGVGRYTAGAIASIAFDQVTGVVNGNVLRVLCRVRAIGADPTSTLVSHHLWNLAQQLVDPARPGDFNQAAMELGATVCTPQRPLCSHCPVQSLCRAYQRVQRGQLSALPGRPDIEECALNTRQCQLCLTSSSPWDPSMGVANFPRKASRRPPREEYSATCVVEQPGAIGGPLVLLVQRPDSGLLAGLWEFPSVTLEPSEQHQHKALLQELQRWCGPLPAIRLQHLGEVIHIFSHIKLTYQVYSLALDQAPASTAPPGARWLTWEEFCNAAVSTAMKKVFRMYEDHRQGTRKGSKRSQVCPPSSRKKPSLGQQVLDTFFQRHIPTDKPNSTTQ


How the values were obtained:
Trx-mMUTYH wild type = molecular target: T1, Trx-mMUTYH wild type; assay: EMSA
Trx-mMUTYH(D207N) = molecular target: T2, Trx-mMUTYH(D207N); assay: EMSA

Binder | binding result (Trx-mMUTYH wild type) | binding result (Trx-mMUTYH(D207N))
*A:GO (dsDNA, 8-oxoguanine at strand 2 position 16, opposite A20 of strand 1) DNA 1: AGCGGCCATCGATACCGTCAACCTCGAGGAATTCC DNA 2: GGAATTCCTCGAGGTGGACGGTATCGATGGCCGCT | binds | binds
*AO:GO (dsDNA, 2-hydroxyadenine at strand 1 position 20; 8-oxoguanine at strand 2 position 16) DNA 1: AGCGGCCATCGATACCGTCAACCTCGAGGAATTCC DNA 2: GGAATTCCTCGAGGTGGACGGTATCGATGGCCGCT | binds | –
*AO:T (dsDNA, 2-hydroxyadenine at strand 1 position 20, opposite T16 of strand 2) DNA 1: AGCGGCCATCGATACCGTCAACCTCGAGGAATTCC DNA 2: GGAATTCCTCGAGGTTGACGGTATCGATGGCCGCT | no binding | no binding
*A:G (dsDNA) DNA 1: AGCGGCCATCGATACCGTCAACCTCGAGGAATTCC DNA 2: GGAATTCCTCGAGGTGGACGGTATCGATGGCCGCT | no binding | no binding
*AO:G (dsDNA, 2-hydroxyadenine at strand 1 position 20, opposite G16 of strand 2) DNA 1: AGCGGCCATCGATACCGTCAACCTCGAGGAATTCC DNA 2: GGAATTCCTCGAGGTGGACGGTATCGATGGCCGCT | no binding | no binding
